Molecular target: CM1021 (human) (UniProt P02768)
Test: SDS-PAGE without and with reduction

Sequence of CM1021 (P14210 whole entry, looked up, the tested form may be a part): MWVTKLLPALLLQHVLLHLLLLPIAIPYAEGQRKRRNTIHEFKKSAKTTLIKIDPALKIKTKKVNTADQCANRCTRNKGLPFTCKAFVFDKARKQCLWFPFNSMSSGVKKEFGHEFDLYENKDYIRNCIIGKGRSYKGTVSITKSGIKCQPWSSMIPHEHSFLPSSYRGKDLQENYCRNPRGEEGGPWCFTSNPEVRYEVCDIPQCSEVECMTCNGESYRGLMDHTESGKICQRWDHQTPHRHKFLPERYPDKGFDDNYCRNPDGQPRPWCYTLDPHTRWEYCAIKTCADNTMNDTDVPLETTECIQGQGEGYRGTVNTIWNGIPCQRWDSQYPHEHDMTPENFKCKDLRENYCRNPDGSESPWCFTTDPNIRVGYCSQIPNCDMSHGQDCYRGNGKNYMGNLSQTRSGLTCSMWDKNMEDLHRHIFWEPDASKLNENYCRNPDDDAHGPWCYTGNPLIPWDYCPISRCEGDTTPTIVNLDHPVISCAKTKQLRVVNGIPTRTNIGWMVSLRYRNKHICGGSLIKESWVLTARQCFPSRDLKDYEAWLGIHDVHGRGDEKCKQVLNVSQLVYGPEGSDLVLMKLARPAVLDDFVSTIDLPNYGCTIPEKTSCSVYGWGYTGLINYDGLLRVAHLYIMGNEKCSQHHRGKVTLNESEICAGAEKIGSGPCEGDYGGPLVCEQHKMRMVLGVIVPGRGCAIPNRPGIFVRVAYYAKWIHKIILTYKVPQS
Sequence of CM1021 (P02768 whole entry, looked up, the tested form may be a part): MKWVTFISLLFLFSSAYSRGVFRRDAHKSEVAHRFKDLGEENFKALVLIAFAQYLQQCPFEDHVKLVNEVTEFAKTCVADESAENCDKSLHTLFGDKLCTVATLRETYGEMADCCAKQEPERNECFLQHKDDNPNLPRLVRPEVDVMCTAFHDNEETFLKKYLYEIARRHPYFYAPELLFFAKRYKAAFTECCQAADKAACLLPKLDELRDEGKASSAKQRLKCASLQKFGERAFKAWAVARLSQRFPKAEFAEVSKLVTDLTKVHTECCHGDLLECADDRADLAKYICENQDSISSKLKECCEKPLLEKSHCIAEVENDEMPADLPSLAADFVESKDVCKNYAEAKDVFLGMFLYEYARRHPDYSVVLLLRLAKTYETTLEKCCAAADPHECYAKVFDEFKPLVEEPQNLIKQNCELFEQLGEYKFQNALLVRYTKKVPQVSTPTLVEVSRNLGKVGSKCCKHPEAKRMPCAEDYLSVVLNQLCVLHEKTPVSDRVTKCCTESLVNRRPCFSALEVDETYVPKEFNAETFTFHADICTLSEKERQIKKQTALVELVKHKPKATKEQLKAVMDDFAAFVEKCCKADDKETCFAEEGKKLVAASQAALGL

- stoichiometry N: 2
Substance: CM1021 (from UniProt P02768 1-18; P14210 124-210) (Fc fusion)

Source: paper PMC8683692
